20 molecules from patent US20210388087A1 can be followed below.

B1: dBBDu183H H93V / dBBDu072L (antibody, name in Kabat numbering, V domains shown)
VH: QVQLVESGGGLVQPGRSLRLSCAASGFTFSNAWMHWVRQAPGKGLEWVAQIKDKGNAYAAYYAPSVKGRFTISRDDSKNSIYLQMNSLKTEDTAVYYCVYVHYASASTVLPAFGVDAWGQGTTVTVSS
VL: DIVMTQSPLSLPVTPGEPASISCQASQELVHMNRNTYLHWYQQKPGQAPRLLIYKVSNRFPGVPDRFSGSGSGTDFTLKISRVEAEDVGVYYCAQGTSVPFTFGQGTKLEIK
B2: dBBDu183H H96G / dBBDu072L (antibody, name in Kabat numbering, V domains shown)
VH: QVQLVESGGGLVQPGRSLRLSCAASGFTFSNAWMHWVRQAPGKGLEWVAQIKDKGNAYAAYYAPSVKGRFTISRDDSKNSIYLQMNSLKTEDTAVYYCHYVGYASASTVLPAFGVDAWGQGTTVTVSS
VL: DIVMTQSPLSLPVTPGEPASISCQASQELVHMNRNTYLHWYQQKPGQAPRLLIYKVSNRFPGVPDRFSGSGSGTDFTLKISRVEAEDVGVYYCAQGTSVPFTFGQGTKLEIK
B3: dBBDu183H A100V / dBBDu072L (antibody, name in Kabat numbering, V domains shown)
VH: QVQLVESGGGLVQPGRSLRLSCAASGFTFSNAWMHWVRQAPGKGLEWVAQIKDKGNAYAAYYAPSVKGRFTISRDDSKNSIYLQMNSLKTEDTAVYYCHYVHYASVSTVLPAFGVDAWGQGTTVTVSS
VL: DIVMTQSPLSLPVTPGEPASISCQASQELVHMNRNTYLHWYQQKPGQAPRLLIYKVSNRFPGVPDRFSGSGSGTDFTLKISRVEAEDVGVYYCAQGTSVPFTFGQGTKLEIK
B4: dBBDu183H Y94G / dBBDu072L (antibody, name in Kabat numbering, V domains shown)
VH: QVQLVESGGGLVQPGRSLRLSCAASGFTFSNAWMHWVRQAPGKGLEWVAQIKDKGNAYAAYYAPSVKGRFTISRDDSKNSIYLQMNSLKTEDTAVYYCHGVHYASASTVLPAFGVDAWGQGTTVTVSS
VL: DIVMTQSPLSLPVTPGEPASISCQASQELVHMNRNTYLHWYQQKPGQAPRLLIYKVSNRFPGVPDRFSGSGSGTDFTLKISRVEAEDVGVYYCAQGTSVPFTFGQGTKLEIK
B5: dBBDu183H G100hV / dBBDu072L (antibody, name in Kabat numbering, V domains shown)
VH: QVQLVESGGGLVQPGRSLRLSCAASGFTFSNAWMHWVRQAPGKGLEWVAQIKDKGNAYAAYYAPSVKGRFTISRDDSKNSIYLQMNSLKTEDTAVYYCHYVHYASASTVLPAFVVDAWGQGTTVTVSS
VL: DIVMTQSPLSLPVTPGEPASISCQASQELVHMNRNTYLHWYQQKPGQAPRLLIYKVSNRFPGVPDRFSGSGSGTDFTLKISRVEAEDVGVYYCAQGTSVPFTFGQGTKLEIK
B6: dBBDu183H D101V / dBBDu072L (antibody, name in Kabat numbering, V domains shown)
VH: QVQLVESGGGLVQPGRSLRLSCAASGFTFSNAWMHWVRQAPGKGLEWVAQIKDKGNAYAAYYAPSVKGRFTISRDDSKNSIYLQMNSLKTEDTAVYYCHYVHYASASTVLPAFGVVAWGQGTTVTVSS
VL: DIVMTQSPLSLPVTPGEPASISCQASQELVHMNRNTYLHWYQQKPGQAPRLLIYKVSNRFPGVPDRFSGSGSGTDFTLKISRVEAEDVGVYYCAQGTSVPFTFGQGTKLEIK
B7: dBBDu183H A100fV / dBBDu072L (antibody, name in Kabat numbering, V domains shown)
VH: QVQLVESGGGLVQPGRSLRLSCAASGFTFSNAWMHWVRQAPGKGLEWVAQIKDKGNAYAAYYAPSVKGRFTISRDDSKNSIYLQMNSLKTEDTAVYYCHYVHYASASTVLPVFGVDAWGQGTTVTVSS
VL: DIVMTQSPLSLPVTPGEPASISCQASQELVHMNRNTYLHWYQQKPGQAPRLLIYKVSNRFPGVPDRFSGSGSGTDFTLKISRVEAEDVGVYYCAQGTSVPFTFGQGTKLEIK
B8: dBBDu183H A98V / dBBDu072L (antibody, name in Kabat numbering, V domains shown)
VH: QVQLVESGGGLVQPGRSLRLSCAASGFTFSNAWMHWVRQAPGKGLEWVAQIKDKGNAYAAYYAPSVKGRFTISRDDSKNSIYLQMNSLKTEDTAVYYCHYVHYVSASTVLPAFGVDAWGQGTTVTVSS
VL: DIVMTQSPLSLPVTPGEPASISCQASQELVHMNRNTYLHWYQQKPGQAPRLLIYKVSNRFPGVPDRFSGSGSGTDFTLKISRVEAEDVGVYYCAQGTSVPFTFGQGTKLEIK
B9: dBBDu183H P100eV / dBBDu072L (antibody, name in Kabat numbering, V domains shown)
VH: QVQLVESGGGLVQPGRSLRLSCAASGFTFSNAWMHWVRQAPGKGLEWVAQIKDKGNAYAAYYAPSVKGRFTISRDDSKNSIYLQMNSLKTEDTAVYYCHYVHYASASTVLVAFGVDAWGQGTTVTVSS
VL: DIVMTQSPLSLPVTPGEPASISCQASQELVHMNRNTYLHWYQQKPGQAPRLLIYKVSNRFPGVPDRFSGSGSGTDFTLKISRVEAEDVGVYYCAQGTSVPFTFGQGTKLEIK
B10: dBBDu183H S100aV / dBBDu072L (antibody, name in Kabat numbering, V domains shown)
VH: QVQLVESGGGLVQPGRSLRLSCAASGFTFSNAWMHWVRQAPGKGLEWVAQIKDKGNAYAAYYAPSVKGRFTISRDDSKNSIYLQMNSLKTEDTAVYYCHYVHYASAVTVLPAFGVDAWGQGTTVTVSS
VL: DIVMTQSPLSLPVTPGEPASISCQASQELVHMNRNTYLHWYQQKPGQAPRLLIYKVSNRFPGVPDRFSGSGSGTDFTLKISRVEAEDVGVYYCAQGTSVPFTFGQGTKLEIK
B11: dBBDu183H Y94V / dBBDu072L (antibody, name in Kabat numbering, V domains shown)
VH: QVQLVESGGGLVQPGRSLRLSCAASGFTFSNAWMHWVRQAPGKGLEWVAQIKDKGNAYAAYYAPSVKGRFTISRDDSKNSIYLQMNSLKTEDTAVYYCHVVHYASASTVLPAFGVDAWGQGTTVTVSS
VL: DIVMTQSPLSLPVTPGEPASISCQASQELVHMNRNTYLHWYQQKPGQAPRLLIYKVSNRFPGVPDRFSGSGSGTDFTLKISRVEAEDVGVYYCAQGTSVPFTFGQGTKLEIK
B12: dBBDu183H A102V / dBBDu072L (antibody, name in Kabat numbering, V domains shown)
VH: QVQLVESGGGLVQPGRSLRLSCAASGFTFSNAWMHWVRQAPGKGLEWVAQIKDKGNAYAAYYAPSVKGRFTISRDDSKNSIYLQMNSLKTEDTAVYYCHYVHYASASTVLPAFGVDVWGQGTTVTVSS
VL: DIVMTQSPLSLPVTPGEPASISCQASQELVHMNRNTYLHWYQQKPGQAPRLLIYKVSNRFPGVPDRFSGSGSGTDFTLKISRVEAEDVGVYYCAQGTSVPFTFGQGTKLEIK
B13: dBBDu183H H93G / dBBDu072L (antibody, name in Kabat numbering, V domains shown)
VH: QVQLVESGGGLVQPGRSLRLSCAASGFTFSNAWMHWVRQAPGKGLEWVAQIKDKGNAYAAYYAPSVKGRFTISRDDSKNSIYLQMNSLKTEDTAVYYCGYVHYASASTVLPAFGVDAWGQGTTVTVSS
VL: DIVMTQSPLSLPVTPGEPASISCQASQELVHMNRNTYLHWYQQKPGQAPRLLIYKVSNRFPGVPDRFSGSGSGTDFTLKISRVEAEDVGVYYCAQGTSVPFTFGQGTKLEIK
B14: dBBDu183H S99V / dBBDu072L (antibody, name in Kabat numbering, V domains shown)
VH: QVQLVESGGGLVQPGRSLRLSCAASGFTFSNAWMHWVRQAPGKGLEWVAQIKDKGNAYAAYYAPSVKGRFTISRDDSKNSIYLQMNSLKTEDTAVYYCHYVHYAVASTVLPAFGVDAWGQGTTVTVSS
VL: DIVMTQSPLSLPVTPGEPASISCQASQELVHMNRNTYLHWYQQKPGQAPRLLIYKVSNRFPGVPDRFSGSGSGTDFTLKISRVEAEDVGVYYCAQGTSVPFTFGQGTKLEIK
B15: dBBDu183H S100aG / dBBDu072L (antibody, name in Kabat numbering, V domains shown)
VH: QVQLVESGGGLVQPGRSLRLSCAASGFTFSNAWMHWVRQAPGKGLEWVAQIKDKGNAYAAYYAPSVKGRFTISRDDSKNSIYLQMNSLKTEDTAVYYCHYVHYASAGTVLPAFGVDAWGQGTTVTVSS
VL: DIVMTQSPLSLPVTPGEPASISCQASQELVHMNRNTYLHWYQQKPGQAPRLLIYKVSNRFPGVPDRFSGSGSGTDFTLKISRVEAEDVGVYYCAQGTSVPFTFGQGTKLEIK
B16: dBBDu183H T100bV / dBBDu072L (antibody, name in Kabat numbering, V domains shown)
VH: QVQLVESGGGLVQPGRSLRLSCAASGFTFSNAWMHWVRQAPGKGLEWVAQIKDKGNAYAAYYAPSVKGRFTISRDDSKNSIYLQMNSLKTEDTAVYYCHYVHYASASVVLPAFGVDAWGQGTTVTVSS
VL: DIVMTQSPLSLPVTPGEPASISCQASQELVHMNRNTYLHWYQQKPGQAPRLLIYKVSNRFPGVPDRFSGSGSGTDFTLKISRVEAEDVGVYYCAQGTSVPFTFGQGTKLEIK
B17: dBBDu183H A98G / dBBDu072L (antibody, name in Kabat numbering, V domains shown)
VH: QVQLVESGGGLVQPGRSLRLSCAASGFTFSNAWMHWVRQAPGKGLEWVAQIKDKGNAYAAYYAPSVKGRFTISRDDSKNSIYLQMNSLKTEDTAVYYCHYVHYGSASTVLPAFGVDAWGQGTTVTVSS
VL: DIVMTQSPLSLPVTPGEPASISCQASQELVHMNRNTYLHWYQQKPGQAPRLLIYKVSNRFPGVPDRFSGSGSGTDFTLKISRVEAEDVGVYYCAQGTSVPFTFGQGTKLEIK
B18: dBBDu183H V95G / dBBDu072L (antibody, name in Kabat numbering, V domains shown)
VH: QVQLVESGGGLVQPGRSLRLSCAASGFTFSNAWMHWVRQAPGKGLEWVAQIKDKGNAYAAYYAPSVKGRFTISRDDSKNSIYLQMNSLKTEDTAVYYCHYGHYASASTVLPAFGVDAWGQGTTVTVSS
VL: DIVMTQSPLSLPVTPGEPASISCQASQELVHMNRNTYLHWYQQKPGQAPRLLIYKVSNRFPGVPDRFSGSGSGTDFTLKISRVEAEDVGVYYCAQGTSVPFTFGQGTKLEIK
B19: dBBDu183H Y97V / dBBDu072L (antibody, name in Kabat numbering, V domains shown)
VH: QVQLVESGGGLVQPGRSLRLSCAASGFTFSNAWMHWVRQAPGKGLEWVAQIKDKGNAYAAYYAPSVKGRFTISRDDSKNSIYLQMNSLKTEDTAVYYCHYVHVASASTVLPAFGVDAWGQGTTVTVSS
VL: DIVMTQSPLSLPVTPGEPASISCQASQELVHMNRNTYLHWYQQKPGQAPRLLIYKVSNRFPGVPDRFSGSGSGTDFTLKISRVEAEDVGVYYCAQGTSVPFTFGQGTKLEIK
B20: dBBDu183H Y97G / dBBDu072L (antibody, name in Kabat numbering, V domains shown)
VH: QVQLVESGGGLVQPGRSLRLSCAASGFTFSNAWMHWVRQAPGKGLEWVAQIKDKGNAYAAYYAPSVKGRFTISRDDSKNSIYLQMNSLKTEDTAVYYCHYVHGASASTVLPAFGVDAWGQGTTVTVSS
VL: DIVMTQSPLSLPVTPGEPASISCQASQELVHMNRNTYLHWYQQKPGQAPRLLIYKVSNRFPGVPDRFSGSGSGTDFTLKISRVEAEDVGVYYCAQGTSVPFTFGQGTKLEIK

In the assay the target is Human CD137 ECD (human). Put plainly: SPR, vs parent H183/L072. A general note: Surface plasmon resonance follows binding to a sensor surface in real time, without labels.
Chain of Human CD137 ECD (human) (chain, as listed by the source limits assumed): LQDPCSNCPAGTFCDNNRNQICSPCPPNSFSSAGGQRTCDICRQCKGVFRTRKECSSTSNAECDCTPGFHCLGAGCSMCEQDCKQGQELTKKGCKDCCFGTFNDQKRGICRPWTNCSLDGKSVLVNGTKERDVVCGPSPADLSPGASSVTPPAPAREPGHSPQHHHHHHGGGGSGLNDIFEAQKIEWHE
Turning to B1, the fold change of affinity was determined as 0 fold.
In the case of B2 it was 0 fold; in that of B3, 0 fold; in that of B4, 0 fold.
The value for B5 was 0 fold.
In the case of B6 it was 0 fold.
For B7, the fold change of affinity was 0 fold.
The value for B8 was 0 fold.
As for B9, the fold change of affinity was 0 fold.
For B10, the fold change of affinity turned out to be 0 fold.
The value for B11 was 0 fold; that for B12 was 0 fold; that for B13 was 0 fold.
In the case of B14 it was 0 fold.
The value for B15 was 0 fold; that for B16 was 0 fold; that for B17 was 0 fold.
On to B18, for which the fold change of affinity turned out to be 0 fold.
The value for B19 was 0 fold; that for B20 was 0 fold.
